The values that follow come from publication PMC9596371 (Nature Chemical Biology, 2022).

The labels stand for the following.
B1: CV27 IgG (antibody, V domains shown)
VH: QVQLVESGGGVVQPGRSLRLSCAASGFTFSSYAMHWVRQAPGKGLEWVALISYDGSNKYYADSVKGRFTISRDNSKNTLYLQMNSLRAEDTAVYYCARSFGGSYYYGMDVWGQGTTVTVSS
VL: QSALTQPASVSGSPGQSITISCTGTSSDVGGYNYVSWYQQHPGKAPKLMIYDVSNRPSGVSNRFSGSKSGNTASLTISGLQAEDEADYYCSSYTSSSTPYVFGTGTKVTVL
B2: COV2-2147 IgG (antibody, V domains shown)
VH: QVQLAESGGGVVQPGRSLRLSCAASGFTFSSYAMHWVRQAPGKGLEWVAVISYDGSNKYYADSVKGRFTISRDNSKNTLYLQMNSLRAEDTAVYYCARSTSGSYYYGMDVWGQGTTVTVSS
VL: QSALTQPASVSGSPGQSITISCTGTSSDVGDYNYVSWYQQHPGKAPKLMIYDVSNRPSGVSNRFSGSKSGNTASLTISGLQAEDEAEYYCSSYTSSSTLLYVFGTGTKVTVL
B3: COVA2-18 IgG (antibody, V domains shown)
VH: EVQLVQSGAEVKKPGSSVKVSCKASGGTFSSYAISWVRQAPGQGLEWMGGIIPIFGTTNYAQKFQGRVTITTDESTSTAYMELSSLRSEDTAVYYCARVYSYDSSGYYLEYWGQGTRVTVSS
VL: EIVLTQSPATLSLSPGERATLSCRASQSVSSYLAWYQQKPGQAPRLLIYDASNRATGIPARFSGSGSGTDFTLTISSLEPEDFAVYYCQQRSNWPPSITFGQGTRLEIK
B4: COV2-2143 IgG (antibody, V domains shown)
VH: EVQLVESGGGLVQPGGSLRLSCAASGFTVSSNYMSWVRQAPGKGLEWVSVIYSAGSTYYADSVKGRFSISRDKSKNTLYLQMNSLRAEDTAVYYCAKEGGSGSLRYYYYGMDVWGQGTTVTVSS
VL: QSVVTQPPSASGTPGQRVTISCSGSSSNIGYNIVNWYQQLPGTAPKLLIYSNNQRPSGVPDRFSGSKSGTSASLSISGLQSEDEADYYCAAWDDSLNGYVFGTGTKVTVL
B5: COVA2-14 IgG (antibody, V domains shown)
VH: QVQLVQSGAEVKKPGSSVKVSCKASGGTFSSYAIIWVRQAPGQGLEWMGGIIPIFGTANYAQKFQGRVTITTDESTSTAYMELSSLRSEDTAVYYCARVRYYDSSGYYEDYWGQGTLVTVSS
VL: EIVLTQSPATLSLSPGERATLSCRASQSVSSYLAWYQQEPGQAPRLLIYDASNRATGIPARFSGSGSGTDFTLTISSLEPEDFAVYYCQQRSNWPPMYTFGQGTKVEIK
B6: COV2-2449 IgG (antibody, V domains shown)
VH: QVQLVESGGGVVQPGRSLRLSCATSGFTFSSFALHWVRQAPGKGLEWVTVISDDGNNKYYVDSVKGRFTISRDNSKNTLFLQMNSLRVEDTAIYYCARASYNSNWSIGEYFRDWGQGTLVTVSS
VL: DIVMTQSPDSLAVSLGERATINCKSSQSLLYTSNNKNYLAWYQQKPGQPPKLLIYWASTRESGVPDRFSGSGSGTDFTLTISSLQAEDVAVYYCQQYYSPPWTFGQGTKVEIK

The first experiment deals with T1, SARS-CoV-1 spike protein (FL-GCN4-Avi-His, 2P, biotinylated trimer) (SARS-CoV (SARS-CoV-1), strain of …, UniProt P59594, stabilised, biotin on the Avi tag). The experiment in a line: BLI. The settings on record: both partners purified.
Take B1: the binding result is listed as “binds”.

As for B2, the binding result was “binds”. B3: the binding result is on record as “binds”.

The target of a further experiment is T1, SARS-CoV-1 spike protein …. The experiment in a line: ELISA. As to conditions: both partners purified.
Take B4: the binding result was “binds”. Regarding B5, the binding result is recorded as “binds”. On to B6, for which the binding result is recorded as “binds”.
